Measured values reported in patent publication US20260125649A1, “MEDIUM COMPOSITION AND METHOD FOR CULTURING MESENCHYMAL STEM CELLS” (ACADEMIA SINICA, priority 2018, published 2026).
“Also recorded” adds a separate entry of the source.

How the values were obtained:
[1] = system: Oct4, Sox2, c-Myc and EpCAM; assay: Flow cytometry of stemness markers in MSCs; format: cell-based, human; settings: data not shown
Experimental: Cells were dissociated with 0.25% trypsin-EDTA (1 mM) (Invitrogen) for 3 min, washed with fluorescence-activated cell sorting buffer (FACS buffer, PBS containing 1% fetal bovine serum), fixed in 4% PFA, and then permeabilized with 0.1% Triton X-100 in PBS. Subsequently, cells were stained with Oct4, Sox2 or Nanog antibodies (1:100, ab 107156, Abcam, UK), washed and suspended in FACS buffer, and incubated with secondary antibody (1:200, Jackson ImmunoResearch) for 60 min at room temperature. Flow cytometry analysis was performed with a BD FACSCanto II flow cytometer (BD Biosciences, CA, USA).
We used human bone marrow-derived MSCs to study the effects of EpEX and first investigated whether EpEX promotes cell proliferation of MSCs. […] Next, we examined the effect of EpEX on cell cycle progression by flow cytometry with propidium iodide (PI) staining. […] EpCAM has been reported to enhance cell cycle progression through upregulation of the proto-oncogene c-Myc and cyclin A/E (Munz et al., 2004). Additionally, EpCAM is known to upregulate cyclin D1 via its direct interaction partner, FHL2, and downstream events such as phosphorylation of the retinoblastoma protein, Rb (Chaves-Perez et al., 2013). Therefore, we further asked whether EpEX can function to upregulate the expression of cell cycle regulators and pluripotency markers. […]

[2] = system: TACE (Ser435), PS2 (Ser327), ERK1/2; assay: Western blotting of phosphorylation of TACE, Presenilin 2 and ERK1/2; format: cell-based, human
Experimental: FIG. 9. EpEX induces the phosphorylation and activity of TACE and γ-secretase. MSCs were stimulated by EpEX for the indicated times, and the activity of TACE and γ-secretase were detected. MSCs were stimulated by EpEX (3 μg/mL) for the indicated times. Western blot analysis was performed to detect the phosphorylation of TACE and Presenilin 2.
FIG. 10. EpEX and EGF induce the phosphorylation of TACE, ERK1/2 and PS2. MSCs were treated with either EGF, EpEX, or co-treated with EGF and EpEX for 5 min. The phosphorylation of ERK1/2 was examined by Western blotting with specific antibodies. […] The phosphorylation of ERK1/2, TACE (Ser435), PS2 (Ser327) were examined by Western blotting with specific antibodies.
Western blotting was performed as previously described (Takahashi et al., 2003). Cells were lysed in lysis buffer (150 mM NaCl, 50 mM Tris-HCl (pH 7.4), 1% Nonidet P-40), containing a protease inhibitor mix (Roche Applied Science). Nuclear fractions and cytoplasmic fractions were separated by the Nuclear/Cytosol Fractionation Kit according to the manufacturer's instructions (BioVision Inc., Milpitas, CA, USA). Protein samples were separated by SDS-PAGE under denaturing conditions, and transferred to a PVDF membrane (Millipore). To probe for pluripotency markers, membranes were incubated with the indicated antibodies against Oct4 (1:1000, Abcam, Cambridge, UK), Nanog (1:1000, Genetex), Lin28 (1:1000, Genetex) or Sox2 (1:1000, Genetex). The CDK and cyclin antibodies were from the CDK and Cyclin Antibody Sampler Kits (Cell Signalling Technology, #9868 and #9869 respectively), including antibodies against cylin D1, D2, E1, and CDK4, CDK9 (1:1000). EpCAM (1:1000, Genetex), phospho-EGFR (1:1000, Cell signaling), EGFR (1:1000, Cell signaling), HMGA2 (1:1000, Cell signaling) or GAPDH (1:10000, Abcam) were also used. After incubation with primary antibody, the membranes were incubated with horseradish peroxidase (HRP)-conjugated secondary antibodies, goat anti-mouse IgG (1:3000, Santa Cruz, CA) or goat anti-rabbit IgG (1:3000, Santa Cruz, CA). […]

HMGA2 = HMGA2 expression and nuclear translocation (Western blotting, immunofluorescence, qPCR); format: cell-based, human; settings: EpEX 3 μg/mL
Experimental: MSCs were treated with EpEX (3 μg/mL), and the expression of HMGA2 was detected by immunofluorescence staining. […] To detect the binding of HMGA2 to Oct4 promoters, cross-linked DNA was isolated and then amplified with specific primers by qPCR. […] The gene expression of HMGA2 is detected by qPCR. MSCs were treated with let-7 mimetic and then treated with EpEX (3 μg/mL) for 12 h. The protein abundance of HMGA2 was examined by Western blotting.
Total RNA was extracted using TRI reagent (Invitrogen, CA, USA), and 5 μg of total RNA was reverse transcribed using oligo (dT) primer (Fermentas, Glen Burnie, MD, USA) with SuperScript III reverse transcriptase (Invitrogen). Quantitative real time RT-PCR (qPCR) was performed on cDNA using the Light Cycler 480 SYBR Green I Master kit (Roche Applied Science, Indianapolis, IN) and the LightCycler480 System (Roche Applied Science). The gene expression levels of each sample were normalized to the expression levels of glyceraldehyde 3-phosphate dehydrogenase (GAPDH).
Western blotting was performed as previously described (Takahashi et al., 2003). Cells were lysed in lysis buffer (150 mM NaCl, 50 mM Tris-HCl (pH 7.4), 1% Nonidet P-40), containing a protease inhibitor mix (Roche Applied Science). […]

EGFR (Tyr845) = molecular target: T1, EGFR (Tyr845) (Homo sapiens, UniProt P00533); assay: EGFR phosphorylation (antibody array, Western blotting); format: cell-based; settings: MSCs treated with the substance (EpEX 3 μg/mL)
T1 construct: host or cells: human primary bone marrow mesenchymal stem cells (BMMSCs)
Experimental: Phospho-EGFR (Tyr845) was detected by Western blotting. […] After treatment, cell cycle progression was investigated by flow cytometry with PI staining. Fraction of cells in each phase (G1, S, G2/M) of the cell cycle was evaluated. Cells that expressed EGFR shRNA or shLuc were treated with EpEX for 18 h. After treatment, cell cycle progression was investigated by flow cytometry with PI staining. Fraction of cells in each phase (G1, S, G2/M) of the cell cycle was evaluated. […] The protein expression of cell cycle regulators (cyclin D1, cyclin D2, cyclin E1) and pluripotency factors (Oct4, Sox2, c-Myc, Lin28) was examined by Western blotting. MSCs expressing EGFR shRNA were stimulated by EpEX. After treatment, the protein expression of cell cycle regulators (cyclin D1, cyclin E1, CDK4 and CDK9) and pluripotency factors (Oct4, in Sox2, c-Myc, and Lin 28) was examined by Western blotting. […] After treatment, the gene expression of pluripotency factors (Oct4, Sox2, c-Myc, Lin28 and EpCAM) was examined by qPCR.
The phosphorylation of EGFR (Tyr845) and STAT3 (Tyr705) were examined by Western blotting with specific antibodies.
Western blotting was performed as previously described (Takahashi et al., 2003). Cells were lysed in lysis buffer (150 mM NaCl, 50 mM Tris-HCl (pH 7.4), 1% Nonidet P-40), containing a protease inhibitor mix (Roche Applied Science). Nuclear fractions and cytoplasmic fractions were separated by the Nuclear/Cytosol Fractionation Kit according to the manufacturer's instructions (BioVision Inc., Milpitas, CA, USA). Protein samples were separated by SDS-PAGE under denaturing conditions, and transferred to a PVDF membrane (Millipore). To probe for pluripotency markers, membranes were incubated with the indicated antibodies against Oct4 (1:1000, Abcam, Cambridge, UK), Nanog (1:1000, Genetex), Lin28 (1:1000, Genetex) or Sox2 (1:1000, Genetex). The CDK and cyclin antibodies were from the CDK and Cyclin Antibody Sampler Kits (Cell Signalling Technology, #9868 and #9869 respectively), including antibodies against cylin D1, D2, E1, and CDK4, CDK9 (1:1000). […]

B1: EpEX: extracellular domain of human EpCAM, 265 amino acids in length (SEQ ID NO: 2) (protein, listed as Homo sapiens)
chain: MAPPQVLAFGLLLAAATATFAAAQEECVCENYKLAVNCFVNNNRQCQCTSVGAQNTVICSKLAAKCLVMKAEMNGSKLGRRAKPEGALQNNDGLYDPDCDESGLFKAKQCNGTSMCWCVNTAGVRRTDKDTEITCSERVRTYWIIIELKHKAREKPYDSKSLRTALQKEITTRYQLDPKFITSILYENNVITIDLVQNSSQKTQNDVDIADVAYYFEKDVKGESLFHSKKMDLTVNGEQLDLDPGQTLIYYVDEKAPEFSMQGLK
B1 was tested, and the “protein levels of the stemness markers Oct4, Sox2, c-Myc and EpCAM” value [1] was “increased”, the “phosphorylation of TACE” value ([2]; EpEX 3 μg/mL) was “induced” and the “phosphorylation of γ-secretase (Presenilin 2)” value ([2]; EpEX 3 μg/mL) was “induced”. The “phosphorylation of ERK1/2” value ([2]; EpEX, EGFR-dependent) was “can induce”, the “level of HMGA2” value (HMGA2) was “induced” and the HMGA2 nuclear translocation (HMGA2; Western blotting and immunofluorescent staining) was “induced”. For the same molecule, the “phosphorylation of EGFR at Tyr845” value (EGFR (Tyr845)) was “induced EGFR phosphorylation at Tyr845 in a time-dependent manner; also recorded: can induce”.
